T1: beta-lactoglobulin (β-Lg) (Bos taurus (cow's milk)?, UniProt P02754 17-178)
T1 sequence: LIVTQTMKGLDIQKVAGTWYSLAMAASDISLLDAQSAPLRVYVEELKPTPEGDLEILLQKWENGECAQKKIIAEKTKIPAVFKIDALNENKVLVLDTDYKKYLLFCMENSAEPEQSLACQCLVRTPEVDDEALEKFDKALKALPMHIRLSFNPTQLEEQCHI

B1: negative control DNA sequence (ssDNA)
DNA: CTAAGTCTGAAACATTACAGCTTGCTACACGAGAAGAGCCGCACGAGAACCCT
B2: β-Lg aptamer (ssDNA)
DNA: CGACGATCGGACCGCAGTACCCACAGCCCCAACATCATGCCCATCCGTGTGTG

How the values were obtained:
[1] = target: T1, beta-lactoglobulin (β-Lg); experiment: fluorescence recovery on WS2 nanosheets, DNase I amplified; DNase I; β-Lg 0.1-100 ug/mL; little fluorescence change, independent of β-Lg; 200 nM FAM-aptamer, 750 ug/mL WS2 (10 min, room temperature), then β-Lg with 0.04 U/uL DNase I, 40 min at 37 °C; ex 490/em 518 nm; buffer, salt and pH not given in the material; conditions: protein: commercial; chain copies: 2; label: 5'-FAM
ovalbumin = ovalbumin (UniProt P01012 2-386); experiment: fluorescence recovery on WS2 nanosheets; 10 ug/mL protein; no significant recovery; 200 nM FAM-aptamer, 750 ug/mL WS2 (10 min, room temperature), then β-Lg with 0.04 U/uL DNase I, 40 min at 37 °C; ex 490/em 518 nm; buffer, salt and pH not given in the material; conditions: protein: commercial; label: 5'-FAM
ovalbumin, sequence (P01012 2-386): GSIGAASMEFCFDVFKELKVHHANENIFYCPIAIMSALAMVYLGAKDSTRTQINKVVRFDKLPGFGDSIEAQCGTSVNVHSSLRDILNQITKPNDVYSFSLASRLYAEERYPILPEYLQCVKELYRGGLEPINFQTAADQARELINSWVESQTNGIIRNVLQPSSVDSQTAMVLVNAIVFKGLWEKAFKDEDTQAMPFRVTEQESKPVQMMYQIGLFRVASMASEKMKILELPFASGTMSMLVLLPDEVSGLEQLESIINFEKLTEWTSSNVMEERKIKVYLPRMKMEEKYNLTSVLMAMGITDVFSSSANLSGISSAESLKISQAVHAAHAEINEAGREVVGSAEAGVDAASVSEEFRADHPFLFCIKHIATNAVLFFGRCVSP

[2] = target: T1, beta-lactoglobulin (β-Lg); experiment: fluorescence recovery on WS2 nanosheets (FRET quenching); no DNase I; WS2 nanosheets; LOD 35 ng/mL; 200 nM FAM-aptamer, 750 ug/mL WS2 (10 min, room temperature), then β-Lg with 0.04 U/uL DNase I, 40 min at 37 °C; ex 490/em 518 nm; buffer, salt and pH not given in the material; conditions: protein: commercial; chain copies: 2; label: 5'-FAM

Row | Binder | binding result [1] | binding result (ovalbumin) | binding result [2]
1 | B1 | no binding |  | 
2 | B2 |  | no binding | binds
